The record followed here is patent publication US20020094516.

Data set [1] deals with T1, phiC31 integrase wild-type (Phage phiC31).
T1 sequence: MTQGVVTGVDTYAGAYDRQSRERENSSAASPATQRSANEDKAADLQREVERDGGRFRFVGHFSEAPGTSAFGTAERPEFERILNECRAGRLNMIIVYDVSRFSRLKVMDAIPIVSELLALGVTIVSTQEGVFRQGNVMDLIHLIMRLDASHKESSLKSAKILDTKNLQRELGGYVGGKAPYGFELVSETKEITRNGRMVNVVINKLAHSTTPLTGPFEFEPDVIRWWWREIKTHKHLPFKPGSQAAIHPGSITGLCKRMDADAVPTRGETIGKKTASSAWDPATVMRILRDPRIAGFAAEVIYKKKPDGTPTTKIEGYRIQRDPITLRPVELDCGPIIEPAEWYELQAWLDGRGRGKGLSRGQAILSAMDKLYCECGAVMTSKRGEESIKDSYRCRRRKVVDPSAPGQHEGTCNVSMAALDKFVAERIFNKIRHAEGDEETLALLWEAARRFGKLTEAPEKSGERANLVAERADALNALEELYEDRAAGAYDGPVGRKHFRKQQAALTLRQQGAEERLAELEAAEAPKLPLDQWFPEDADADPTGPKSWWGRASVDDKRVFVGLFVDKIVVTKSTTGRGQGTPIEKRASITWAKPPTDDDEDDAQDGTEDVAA
Briefly: cell_activity. The settings on record: human 293 cells, attB plasmid integration into genome, G418 selection.

Data set [2] relates to T2, phiC31 integrase mutant 1C1 (Phage phiC31).
T2 sequence: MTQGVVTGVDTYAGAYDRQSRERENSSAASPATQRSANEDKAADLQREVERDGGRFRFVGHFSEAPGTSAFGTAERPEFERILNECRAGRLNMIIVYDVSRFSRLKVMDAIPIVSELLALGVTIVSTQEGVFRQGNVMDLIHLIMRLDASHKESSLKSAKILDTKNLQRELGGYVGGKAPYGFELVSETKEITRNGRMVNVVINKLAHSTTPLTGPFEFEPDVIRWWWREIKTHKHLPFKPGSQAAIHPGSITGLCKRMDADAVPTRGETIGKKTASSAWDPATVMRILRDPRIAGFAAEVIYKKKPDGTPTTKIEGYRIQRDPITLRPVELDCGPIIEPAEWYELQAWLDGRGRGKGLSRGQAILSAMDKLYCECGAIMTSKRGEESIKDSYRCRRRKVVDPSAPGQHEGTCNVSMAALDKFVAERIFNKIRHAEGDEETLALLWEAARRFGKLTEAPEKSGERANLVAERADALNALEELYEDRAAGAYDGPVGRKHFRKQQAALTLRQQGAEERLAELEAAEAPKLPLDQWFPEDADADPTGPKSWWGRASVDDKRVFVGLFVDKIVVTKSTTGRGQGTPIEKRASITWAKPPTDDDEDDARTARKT
In words: cell_activity. The conditions noted are these: human 293 cells, attB plasmid integration into genome; integration at psiA shown by PCR.

“CGATGTAGGTCACGGTCTCGAAGCCGCGGTGCGGGTGCCAGGGCGTGCCCTTGGGCTCCCCGGGCGCGTACTCCACCTCACCCATCTGGTCCATCATGATGAACGGGTCGAGGTGGCGGTAGTTGATCCCGGCGAACGCGCGGCGCACCGGGAAGCCCTCGCCCTCGAAACCGCTGGGCGCGGTGGTCACGGTGAGCACGGGACGTGCGACGGCGTCGGCGGGTGCGGATACGCGGGGCAGCGTCAGCGGGTTCTCGACGGTCACGGCGGGCATGTCGA (double strand) [phiC31 attB (full length)]”: the activity (fold colonies over background) in data set [1] was more than 10. In data set [2], this sequence displayed an integration activity (fold colonies vs wild-type integrase) of 2.
